These results are taken from US20210246166A1 (Bayer, published 2021).

Bridge positions count the residues as written; N and C are the ends. Square brackets hold non-standard residues; d marks the D form. Ends that are not written are not given here. Oic = O=C(O)[C@@H]1C[C@@H]2CCCC[C@@H]2N1; tBuAla = CC(C)(C)C[C@H](N)C(=O)O; 2Pal = N[C@@H](Cc1ccccn1)C(=O)O; Chg = N[C@H](C(=O)O)C1CCCCC1; PEG4 = NCCOCCOCCOCCOCCC(=O)O; Pen = CC(C)(S)[C@H](N)C(=O)O; Tranexamic = tranexamic acid; NMeC = CN[C@@H](CS)C(=O)O; NMeA = CN[C@@H](C)C(=O)O; Dab = NCC[C@H](N)C(=O)O; Abu = CC[C@H](N)C(=O)O; Sar = CNCC(=O)O

T1: Recombinant human MASP1 enzyme (fragment corresponding to amino acids 297-699, C-terminal His Tag) (human, UniProt P48740 297-699)
T1 sequence: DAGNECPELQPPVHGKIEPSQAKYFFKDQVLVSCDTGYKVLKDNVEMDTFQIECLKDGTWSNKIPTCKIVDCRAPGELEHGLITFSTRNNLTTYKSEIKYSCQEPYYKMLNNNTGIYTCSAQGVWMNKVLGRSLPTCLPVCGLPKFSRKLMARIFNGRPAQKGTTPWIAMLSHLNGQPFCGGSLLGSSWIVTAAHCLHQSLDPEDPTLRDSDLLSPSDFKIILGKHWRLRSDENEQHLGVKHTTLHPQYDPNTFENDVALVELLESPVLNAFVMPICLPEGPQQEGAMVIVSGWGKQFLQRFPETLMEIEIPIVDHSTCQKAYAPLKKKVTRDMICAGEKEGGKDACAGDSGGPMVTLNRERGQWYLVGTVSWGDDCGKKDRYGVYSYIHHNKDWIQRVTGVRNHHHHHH

B1: (Dab)-IC+SRS-((tBu)A)-PPI-(Pen)+IP-NH2 (peptide)
peptide: [Dab]ICSRS[tBuAla]PPI[Pen]IP-NH2
modifications: disulfide 3-11; N-terminus assumed
SMILES: CC[C@H](C)[C@H](NC(=O)[C@@H](N)CCN)C(=O)N[C@H]1CSSC(C)(C)[C@@H](C(=O)N[C@H](C(=O)N2CCC[C@H]2C(N)=O)[C@@H](C)CC)NC(=O)[C@H]([C@@H](C)CC)NC(=O)[C@@H]2CCCN2C(=O)[C@@H]2CCCN2C(=O)[C@H](CC(C)(C)C)NC(=O)[C@H](CO)NC(=O)[C@H](CCCNC(=N)N)NC(=O)[C@H](CO)NC1=O
B2: AIC+SRSLPPI-(Pen)+IPD-NH2 (peptide)
peptide: AICSRSLPPI[Pen]IPD-NH2
modifications: disulfide 3-11; N-terminus assumed
SMILES: CC[C@H](C)[C@H](NC(=O)[C@H](C)N)C(=O)N[C@H]1CSSC(C)(C)[C@@H](C(=O)N[C@H](C(=O)N2CCC[C@H]2C(=O)N[C@@H](CC(=O)O)C(N)=O)[C@@H](C)CC)NC(=O)[C@H]([C@@H](C)CC)NC(=O)[C@@H]2CCCN2C(=O)[C@@H]2CCCN2C(=O)[C@H](CC(C)C)NC(=O)[C@H](CO)NC(=O)[C@H](CCCNC(=N)N)NC(=O)[C@H](CO)NC1=O
B3: AIC+SRS-((tBu)A)-P-(Oic)-I-((N-Me)C)+I-OH (peptide)
peptide: AICSRS[tBuAla]P[Oic]I[NMeC]I-OH
modifications: disulfide 3-11; N-terminus assumed
SMILES: CC[C@H](C)[C@H](NC(=O)[C@@H]1CSSC[C@H](NC(=O)[C@@H](NC(=O)[C@H](C)N)[C@@H](C)CC)C(=O)N[C@@H](CO)C(=O)N[C@@H](CCCNC(=N)N)C(=O)N[C@@H](CO)C(=O)N[C@@H](CC(C)(C)C)C(=O)N2CCC[C@H]2C(=O)N2[C@@H](C[C@@H]3CCCC[C@@H]32)C(=O)N[C@@H]([C@@H](C)CC)C(=O)N1C)C(=O)O
B4: aIC+SRSLP-(Oic)-I-(Pen)+IP-NH2 (peptide)
peptide: [dA]ICSRSLP[Oic]I[Pen]IP-NH2
modifications: disulfide 3-11; N-terminus assumed
SMILES: CC[C@H](C)[C@H](NC(=O)[C@@H](C)N)C(=O)N[C@H]1CSSC(C)(C)[C@@H](C(=O)N[C@H](C(=O)N2CCC[C@H]2C(N)=O)[C@@H](C)CC)NC(=O)[C@H]([C@@H](C)CC)NC(=O)[C@@H]2C[C@@H]3CCCC[C@@H]3N2C(=O)[C@@H]2CCCN2C(=O)[C@H](CC(C)C)NC(=O)[C@H](CO)NC(=O)[C@H](CCCNC(=N)N)NC(=O)[C@H](CO)NC1=O
B5: (Abu)-IC+SRSLPP-(Chg)-C+IPD-NH2 (peptide)
peptide: [Abu]ICSRSLPP[Chg]CIPD-NH2
modifications: disulfide 3-11; N-terminus assumed
SMILES: CC[C@H](N)C(=O)N[C@H](C(=O)N[C@H]1CSSC[C@@H](C(=O)N[C@H](C(=O)N2CCC[C@H]2C(=O)N[C@@H](CC(=O)O)C(N)=O)[C@@H](C)CC)NC(=O)[C@H](C2CCCCC2)NC(=O)[C@@H]2CCCN2C(=O)[C@@H]2CCCN2C(=O)[C@H](CC(C)C)NC(=O)[C@H](CO)NC(=O)[C@H](CCCNC(=N)N)NC(=O)[C@H](CO)NC1=O)[C@@H](C)CC
B6: ((N-Me)G)-IC+SRSLP-(Oic)-I-(Pen)+IPD-NH2 (peptide)
peptide: [Sar]ICSRSLP[Oic]I[Pen]IPD-NH2
modifications: disulfide 3-11; N-terminus assumed
SMILES: CC[C@H](C)[C@H](NC(=O)CNC)C(=O)N[C@H]1CSSC(C)(C)[C@@H](C(=O)N[C@H](C(=O)N2CCC[C@H]2C(=O)N[C@@H](CC(=O)O)C(N)=O)[C@@H](C)CC)NC(=O)[C@H]([C@@H](C)CC)NC(=O)[C@@H]2C[C@@H]3CCCC[C@@H]3N2C(=O)[C@@H]2CCCN2C(=O)[C@H](CC(C)C)NC(=O)[C@H](CO)NC(=O)[C@H](CCCNC(=N)N)NC(=O)[C@H](CO)NC1=O
B7: ((N-Me)G)-IC+SRSLP-(Oic)-I-(Pen)+IP-OH (peptide)
peptide: [Sar]ICSRSLP[Oic]I[Pen]IP-OH
modifications: disulfide 3-11; N-terminus assumed
SMILES: CC[C@H](C)[C@H](NC(=O)CNC)C(=O)N[C@H]1CSSC(C)(C)[C@@H](C(=O)N[C@H](C(=O)N2CCC[C@H]2C(=O)O)[C@@H](C)CC)NC(=O)[C@H]([C@@H](C)CC)NC(=O)[C@@H]2C[C@@H]3CCCC[C@@H]3N2C(=O)[C@@H]2CCCN2C(=O)[C@H](CC(C)C)NC(=O)[C@H](CO)NC(=O)[C@H](CCCNC(=N)N)NC(=O)[C@H](CO)NC1=O
B8: ((N-Me)G)-IC+SRSLP-(Oic)-I-(Pen)+IPE-NH2 (peptide)
peptide: [Sar]ICSRSLP[Oic]I[Pen]IPE-NH2
modifications: disulfide 3-11; N-terminus assumed
SMILES: CC[C@H](C)[C@H](NC(=O)CNC)C(=O)N[C@H]1CSSC(C)(C)[C@@H](C(=O)N[C@H](C(=O)N2CCC[C@H]2C(=O)N[C@@H](CCC(=O)O)C(N)=O)[C@@H](C)CC)NC(=O)[C@H]([C@@H](C)CC)NC(=O)[C@@H]2C[C@@H]3CCCC[C@@H]3N2C(=O)[C@@H]2CCCN2C(=O)[C@H](CC(C)C)NC(=O)[C@H](CO)NC(=O)[C@H](CCCNC(=N)N)NC(=O)[C@H](CO)NC1=O
B9: (2-Pal)-IC+SRS-((tBu)A)-PPI-(Pen)+IPD-NH2 (peptide)
peptide: [2Pal]ICSRS[tBuAla]PPI[Pen]IPD-NH2
modifications: disulfide 3-11; N-terminus assumed
SMILES: CC[C@H](C)[C@H](NC(=O)[C@@H](N)Cc1ccccn1)C(=O)N[C@H]1CSSC(C)(C)[C@@H](C(=O)N[C@H](C(=O)N2CCC[C@H]2C(=O)N[C@@H](CC(=O)O)C(N)=O)[C@@H](C)CC)NC(=O)[C@H]([C@@H](C)CC)NC(=O)[C@@H]2CCCN2C(=O)[C@@H]2CCCN2C(=O)[C@H](CC(C)(C)C)NC(=O)[C@H](CO)NC(=O)[C@H](CCCNC(=N)N)NC(=O)[C@H](CO)NC1=O
B10: ((N-Me)A)-IC+SRSLP-(Oic)-I-(Pen)+IPQ-OH (peptide)
peptide: [NMeA]ICSRSLP[Oic]I[Pen]IPQ-OH
modifications: disulfide 3-11; N-terminus assumed
SMILES: CC[C@H](C)[C@H](NC(=O)[C@H](C)NC)C(=O)N[C@H]1CSSC(C)(C)[C@@H](C(=O)N[C@H](C(=O)N2CCC[C@H]2C(=O)N[C@@H](CCC(N)=O)C(=O)O)[C@@H](C)CC)NC(=O)[C@H]([C@@H](C)CC)NC(=O)[C@@H]2C[C@@H]3CCCC[C@@H]3N2C(=O)[C@@H]2CCCN2C(=O)[C@H](CC(C)C)NC(=O)[C@H](CO)NC(=O)[C@H](CCCNC(=N)N)NC(=O)[C@H](CO)NC1=O
B11: ((N-Me)G)-IC+SRS-((tBu)A)-PPI-(Pen)+IP-(PEG3(16atoms))-NH2 (peptide)
peptide: [Sar]ICSRS[tBuAla]PPI[Pen]IP[PEG4]-NH2
modifications: disulfide 3-11; N-terminus assumed
SMILES: CC[C@H](C)[C@H](NC(=O)CNC)C(=O)N[C@H]1CSSC(C)(C)[C@@H](C(=O)N[C@H](C(=O)N2CCC[C@H]2C(=O)NCCOCCOCCOCCOCCC(N)=O)[C@@H](C)CC)NC(=O)[C@H]([C@@H](C)CC)NC(=O)[C@@H]2CCCN2C(=O)[C@@H]2CCCN2C(=O)[C@H](CC(C)(C)C)NC(=O)[C@H](CO)NC(=O)[C@H](CCCNC(=N)N)NC(=O)[C@H](CO)NC1=O
B12: ((N-Me)A)-IC+SRSLP-(Oic)-I-(Pen)+IPD-OH (peptide)
peptide: [NMeA]ICSRSLP[Oic]I[Pen]IPD-OH
modifications: disulfide 3-11; N-terminus assumed
SMILES: CC[C@H](C)[C@H](NC(=O)[C@H](C)NC)C(=O)N[C@H]1CSSC(C)(C)[C@@H](C(=O)N[C@H](C(=O)N2CCC[C@H]2C(=O)N[C@@H](CC(=O)O)C(=O)O)[C@@H](C)CC)NC(=O)[C@H]([C@@H](C)CC)NC(=O)[C@@H]2C[C@@H]3CCCC[C@@H]3N2C(=O)[C@@H]2CCCN2C(=O)[C@H](CC(C)C)NC(=O)[C@H](CO)NC(=O)[C@H](CCCNC(=N)N)NC(=O)[C@H](CO)NC1=O

For the first assay, the target named is Recombinant human MASP2 enzyme (fragment corresponding to amino acids 297-686, C-terminal His Tag) (human, UniProt O00187 297-686). Briefly: cell-based or functional assay.
Recombinant human MASP2 enzyme (fragment corresponding to amino acids 297-686, C-terminal His Tag), sequence (O00187 other isoform, or with tags, fused parts or gaps limits assumed): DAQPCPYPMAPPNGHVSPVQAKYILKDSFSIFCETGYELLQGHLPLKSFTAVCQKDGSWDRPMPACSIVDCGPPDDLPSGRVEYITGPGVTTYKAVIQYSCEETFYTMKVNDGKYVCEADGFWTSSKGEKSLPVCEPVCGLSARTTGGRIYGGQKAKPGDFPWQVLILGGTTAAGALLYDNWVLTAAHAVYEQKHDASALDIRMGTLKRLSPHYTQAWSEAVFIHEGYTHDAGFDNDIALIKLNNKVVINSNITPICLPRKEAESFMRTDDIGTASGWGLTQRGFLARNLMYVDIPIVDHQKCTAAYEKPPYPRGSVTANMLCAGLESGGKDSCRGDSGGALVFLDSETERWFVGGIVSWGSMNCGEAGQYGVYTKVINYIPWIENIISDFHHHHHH
Regarding B1, the “human MASP2 IC50” value was 64 nM.
On to [Sar]ICSRSLP[Oic]I[Pen]I[5‑Azaspiro(2.4)heptane‑1‑carboxylic acid]-OH (disulfide 3-11) [((N-Me)G)-IC+SRSLP-(Oic)-I-(Pen)+I-((5-Azaspiro[2.4]heptane-1-carboxylic acid)-OH], for which the “human MASP2 IC50” value is 57 nM.
On to B2, for which the “human MASP2 IC50” value came out at 68 nM.
Regarding B3, the “human MASP2 IC50” value is 850 nM.
Turning to B4, the “human MASP2 IC50” value stood at 59 nM.
On the same count and under the same terms, the figure for B5 is 52 nM; for B6 it is 150 nM; for AICSRS[tBuAla]P[(2S,3aS,6aS)‑Octahydrocyclopenta(b)pyrrole‑2‑carboxylic acid]I[NMeC]IPD-NH2 (disulfide 3-11) it is 240 nM.
Turning to AICSRS[tBuAla]PPI[Pen]IP[Tranexamic]-NH2 (disulfide 3-11) [AIC+SRS-((tBu)A)-PPI-(Pen)+IP-(Tranexamic)-NH2], the “human MASP2 IC50” value is 30 nM.
On the same count and under the same terms, the figure for B7 is 230 nM; for B8 it is 200 nM.
As to B9, the “human MASP2 IC50” value is 68 nM.
As for B10, the “human MASP2 IC50” value stood at 170 nM.
Same read-out and setting: the figure for B11 is 65.5 nM.
Same read-out and setting: the figure for B12 is 160 nM.

A further assay deals with T1, Recombinant human MASP1 enzyme …. Briefly: cell-based or functional assay.
Take B1: the “human MASP1 IC50” value was determined as 4 nM.
[Sar]ICSRSLP[Oic]I[Pen]I[5‑Azaspiro(2.4)heptane‑1‑carboxylic acid]-OH (disulfide 3-11) [((N-Me)G)-IC+SRSLP-(Oic)-I-(Pen)+I-((5-Azaspiro[2.4]heptane-1-carboxylic acid)-OH]: the “human MASP1 IC50” value is 4 nM.
Consider B2, for which the “human MASP1 IC50” value was found to be 4.3 nM.
For the molecule B3, the “human MASP1 IC50” value amounted to 4.4 nM.
Still for that read-out and setting: next, B4: 4.3 nM.
With B5, the “human MASP1 IC50” value was 4.25 nM.
The same measure, in the same setting: the figure for B6 is 4.05 nM; for AICSRS[tBuAla]P[(2S,3aS,6aS)‑Octahydrocyclopenta(b)pyrrole‑2‑carboxylic acid]I[NMeC]IPD-NH2 (disulfide 3-11) it is 4.4 nM.
The same measure, in the same setting: next, AICSRS[tBuAla]PPI[Pen]IP[Tranexamic]-NH2 (disulfide 3-11) [AIC+SRS-((tBu)A)-PPI-(Pen)+IP-(Tranexamic)-NH2]: 4.3 nM; B7: 4.2 nM; B8: 4.3 nM.
Take B9: the “human MASP1 IC50” value was 4.4 nM.
For B10, the “human MASP1 IC50” value is 4.4 nM.
Regarding B11, the “human MASP1 IC50” value amounted to 4.35 nM.
B12: the “human MASP1 IC50” value turned out to be 3.9 nM.
